Measured values: publication PMC4502523

Assays:
[1] = tested on: CC(N)Cc1ccc(Cl)cc1; assay: cells, lysate or membranes
[2] = tested on: CSc1ccc(CC(C)N)cc1; assay: cells, lysate or membranes

human SERT (hSERT) (Homo sapiens)
Km [1]: 3.3 ± 0.9 µM | Km [2]: 6.1 ± 2.3 µM
